# Test results as given in patent publication US20190248902A1 (published 2019).
# Substitutions are numbered along the chain they refer to.
# T1: recombinant, soluble human ASGR-1 (human, UniProt P07306 62-291)
# T1 construct: biotinylated in the binning assay; also called soluble huASGR-1; Soluble ASGR-1 (Amgen)
# T1 sequence: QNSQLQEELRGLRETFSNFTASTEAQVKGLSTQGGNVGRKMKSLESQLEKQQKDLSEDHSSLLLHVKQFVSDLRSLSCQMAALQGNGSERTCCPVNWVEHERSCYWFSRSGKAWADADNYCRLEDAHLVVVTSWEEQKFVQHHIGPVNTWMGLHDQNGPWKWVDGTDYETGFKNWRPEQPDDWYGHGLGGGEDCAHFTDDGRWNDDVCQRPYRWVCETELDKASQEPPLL
# B1: 60G2 (antibody, V domains shown)
# VH: QVQLVESGGGVVQPGRSLRLSCAASGFTFSSYGMHWVRQAPGKGLEWVAVIWYDGSNKYYADSVKGRFTISRDNSKNTLYLQMNSLRAEDTAVYYCARRYSRSWTGGMDVWGQGTTVTVSS
# VL: DIVMTQTPLSLSVTPGQSASISCKSSQSLLHSEGKTYLYWYLQKPGQPPQLLIYEVSNRISGVPDRFSGSGSGTDFTLKISRVEAEDVGVYYCMQSIQLPLTFGGGTKVEIK
# notes: hybridoma mAb
# B2: 49C1 (antibody, V domains shown)
# VH: B1 VH with A23T, R102S, T105S
# VL: DIVMTQTPLSLSVTPGQPASISCKSSQSLLHREGKTYLYWYLQKPGQAPQFLIFEVSHRFSGVPDRFSGSGSGTDFTLKISRVEAEDVGVYYCMQSIQIPITLGQGTRLEIK
# notes: hybridoma mAb
# B3: 173C11 (antibody, V domains shown)
# VH: B1 VH with M34I, V50L, W52F, Q82H, N84S, R102S, T105S
# VL: DIVMTQTPLSLSVTPGQPASISCKSSQSLLHSEGKTYLYWYLQKPGQPPQLLIYEVSHRFSGVPDRFSGSGSGTDFTLKISRVEAEDVGVYYCMQSIQLLTFGGGTKVEIK
# notes: hybridoma mAb
# B4: 60C12 (antibody, V domains shown)
# VH: B1 VH with A61V
# VL: B1 VL with S18P, L51F, I60F, V90I, Q98K, L99Y
# notes: hybridoma mAb
# B5: 148H10 (antibody, V domains shown)
# VH: B1 VH with A61G, R102S, T105S
# VL: B1 VL with S18P, N58Y, I60V
# notes: hybridoma mAb
# B6: 47C1 (antibody, V domains shown)
# VH: B1 VH with S31D, A40T, Y80F, A88D, T105V
# VL: B1 VL with S18P, K24T, I60F, Y91F, L101W, G105Q
# notes: hybridoma mAb
# B7: 179C2 (antibody, V domains shown)
# VH: B1 VH with V50L, W52F, Y80F, R102G, T105S
# VL: B3 VL with L99V
# notes: hybridoma mAb
# B8: 72F5 (antibody, V domains shown)
# VH: EVQLLESGGGLVQPGGSLRLSCAASGFTFSSYAMIWVRQAPGKGLEWVSTISGSGGYTYSADSVKGRFTISRDNSKNTLYLQMNSLRAEDTAVYYCARRIAVTGTEWYDPWGQGTLVTVSS
# VL: DIQMTQSPSSLSASVGDRVIIPCRASQNISSYLNWYQQKPGKAPKLLIYAASSLQSGVPSRFSGSGSGTDFTLTISSLQPEDFATYSCQQTYSTPTFGQGTRLDIN
# notes: hybridoma mAb
# B9: 64G12 (antibody, V domains shown)
# VH: EVQLLESGGGLVQPGGSLRLSCAASGFTFSSNAMSWVRQAPGKGLEWVSVISGSGGSTYYADSVKGRFTISRDNSKNTLYLQMNSLRAEDTALYYCAKRNYDDAFDIWGQGTMVTVSS
# VL: DIQMTQSPSSVSASVGDRVTITCRASQNITTWLAWYQQKPGKAPKLLISAASSLQSGVPSRFSGSGSGTDFTLTISSLQPEDFATYICQQANSFPFTFGPGTKLDIK
# notes: hybridoma mAb
# B10: 147E9 (antibody, V domains shown)
# VH: EVQLVESGGGLVQPGGSLRLSCAASGFTFSSYSMNWVRQAPGKGLEWVSSISGRNTTIYYADSVKGRFTISRDNAKNSLYLQMNSLRDEDTAVYYCSRDRGSCWGQGTLVTVSS
# VL: DIQMTQSPSSLSASVGDRVTITCRASQDINNYLAWFQQKPGKAPKSLIVAASSLQSGVPSKFSGSGSGTDFTLTISSLQPEDFATYYCQQYNSYPLTFGGGTKVEIK
# notes: hybridoma mAb
# B11: 194A4 (antibody, V domains shown)
# VH: QVQLVQSGTEVKKPGASLKVSCKASGYTFTVYYLNWVRQAPGQGLEWMGWINPNSGGTNYAQKFQGRVTMTRDTSISTAYMELSRLRSDDTAVYYCARGYDILTGWGQGTLVTVSS
# VL: EIVLTQSPGTLSLSPGERATLSCRASRGVSNIYLAWYQQKPGQAPRLLIYGASNRATGIPDRFSGSGSGTDFTLTISRLEPEDFAVYYCQHNDYSMFTFGPGTKVDIK
# notes: hybridoma mAb
# B12: 52H2 (antibody, V domains shown)
# VH: EVQLLESGGGLVQPGGSLRLSCAASGFTFSRNAMSWVRQAPGMGLEWVSAISGRGGNTFYADSVKGRFTVSRDNSKNTLFLQMNSLRAEDTAVYYCAKNGREQWLDYWGQGTLVTVSS
# VL: DIQMTQSPSSVSASVGDRVTITCRASQNITNWLAWFQQKPGRAPKLLIYTTSSLQSGVPSRFSGSGSGTDFTLTISSLQPEDFATYCCQQTNSFPWTFGHGTKVEVK
# notes: hybridoma mAb
# B13: 62H10 (antibody, V domains shown)
# VH: EVQLVESGGGLVKPGGSLRLSCAASGFTFSSYSMNWVRQAPGKGLEWVSSISSSSSYIYYADSVKGRFTISRDNAKNSLYLQMNSLRAEDTAVYYCARGGSRGFDPWGQGTLVTVSS
# VL: DIQMTQSPSSLSASVGDRVTITCRASQSITSYLNWYQQKPGKVPKLLISTASSLQSGVPSRFSGSGSGTDFTLTISSLQPEDFATYYCQQSHSFPFTFGPGTNVDFK
# notes: hybridoma mAb
# B14: 72G9 (antibody, V domains shown)
# VH: B13 VH with S53G, Y95F
# VL: B13 VL with V43A, S49Y, N103K, F106I
# notes: hybridoma mAb
# B15: 184E7 (antibody, V domains shown)
# VH: QVQLVQSGAEVKTPGASVKVSCRASGYTFTSYNMHWVRQVPGQGLEWMGWINPNNGGSNYTQKFQGRVTMTRDTSISTAYMELSRLRSDDTAVYYCARKFGDWGQGTLVTVSS
# VL: DIQMTQSPSSRSASIGERVTITCRASQGISNYLAWIQQKPGTAPKSLIYAASSLQSGVSSRFSGSGFGTDFTITISSVQREDFATYYCQQYNGYPFTFGHGTKVDIK
# notes: hybridoma mAb
# B16: 4B1 (antibody, V domains shown)
# VH: QVQLQESGPGLVKPSETLSLTCSVSGDSISSYSWSWIRQPAGKGLEWIGRIYTSGSTNYIPSLKSRITMSVDTSKKQFSLKLSSVTAADTAVYYCARDLKSSGCLFFDYWGQGTLVTVSS
# VL: DIQMTQSPSSLSASVGDRVTITCRASHTIRTYLNWYQQKPGKAPKLLIYAASSLQSGVPSRINGSGSGTDFTLTITNLQPEDFATYYCQQSYNISFTFGPGTKVDIK
# notes: hybridoma mAb
# B17: 208A2 (antibody, V domains shown)
# VH: QVQLQESGPGLVKPSETLSLNCTVSGGSIRSYYWSWIRQPAGKGLEWIGRIYTSGSTDYNPSLKSRITMSVDTSKNQFSLKLSSVTAADTAVYYCARGFGDWDYWGQGTLVTVSS
# VL: DIQMTQSPSSLSASVGDRVTITCRTSQGIRNDLGWYQQQPGKTPKRLIYAASSLLSGVPSRFSGSRSGTDFTLTISSLQPEDFATYYCLQYNSYPPTFGQGTRLEIK
# notes: hybridoma mAb
# B18: 210G10 (antibody, V domains shown)
# VH: B17 VH
# VL: B17 VL with C23F, L47M, L55F
# notes: hybridoma mAb
# B19: 48B12 (antibody, V domains shown)
# VH: EVQLLESGGGLVQPGGSLRLSCAASGFTFSSYAMNWVRQAPGKGLEWVSAISGRGGNTFYADSVKGRFTISRDNSKNTLYLQMNSLRAEDTAVYYCAKRETYNWNYEGFDYWGQGTLVTVSS
# VL: SYELTQPPSVSVSPGQTARITCSGDALPKKYAYWYQQKSGQAPVLVIYEDSKRPSGIPERFSGSSSGTMATLTISGAQVEDEADYYCNSTDSSGNHVVFGGGTKLTVL
# notes: hybridoma mAb
# B20: 6G7 (antibody, V domains shown)
# VH: QVQLVESGGGVVQPGRSLRLSCAASGFTFSSYGMHWVRQTPGKGLEWVAIISYVGKNKYYADSVKGRFTISRDNSKNTLYLQMNSLRAEDTAVYYCARRGNSYGGYGMDVWGQGTTVTVSS
# VL: DIQMTQSPSSRSASVGDRVTITCQASQDISNYLNWCQQKPGKALKLLIYDASTLETGVPSRFSGSGSGTDFTFTISSVQPEDIATYYCQQYDNVPITFGQGTRLEIK
# notes: hybridoma mAb
# Target: T1, recombinant, soluble human ASGR-1
# Experiment: Octet BLI dissociation, pH 5.6 plus calcium
# Procedure, shortened: (§1)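 Antibodies were captured on anti-human Fc biosensors, and soluble ASGR-1 (6 ug/ml) was associated for 2 min in Tris buffer containing 1 mM CaCl2 at pH 7.4, followed by 10 min dissociation under each test condition. The signal at the end of association was set as 100%. Percent ASGR-1 still bound after 1 min of dissociation was compared with the pH 7.4 plus calcium control, and >10% extra dissociation was scored as sensitive.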
row,% Change Compared to pH 7.4 + Calcium [%],Binder
1,7,B1
2,23,B2
3,0,B3
4,-3,B4
5,10,B5
6,-1,B6
7,0,B7
8,20,B8
9,10,B9
10,-4,B10
11,-7,B11
12,11,B12
13,-2,B13
14,-7,B14
15,-9,B15
16,-5,B16
17,-10,B17
18,-10,B18
19,-6,B19
20,4,B20

# Target: T1, recombinant, soluble human ASGR-1
# Experiment: Octet BLI dissociation, pH 5.6 minus calcium
# Procedure, shortened: as §1
row,% Change Compared to pH 7.4 + Calcium [%],Binder
1,31,B1
2,64,B2
3,29,B3
4,12,B4
5,47,B5
6,10,B6
7,45,B7
8,30,B8
9,24,B9
10,20,B10
11,-3,B11
12,32,B12
13,14,B13
14,-1,B14
15,-3,B15
16,-2,B16
17,-5,B17
18,-5,B18
19,0,B19
20,16,B20

# Target: T1, recombinant, soluble human ASGR-1
# Experiment: Octet BLI dissociation, pH 7.4 minus calcium
# Procedure, shortened: as §1
row,% Change Compared to pH 7.4 + Calcium [%],Binder
1,36,B1
2,72,B2
3,17,B3
4,14,B4
5,45,B5
6,13,B6
7,25,B7
8,64,B8
9,24,B9
10,5,B10
11,-1,B11
12,26,B12
13,13,B13
14,1,B14
15,1,B15
16,6,B16
17,-4,B17
18,-3,B18
19,4,B19
20,8,B20
